# Test results taken from patent US20120269834A1, “IMMUNOGLOBULIN CLEAVAGE FRAGMENT VACCINE COMPOSITIONS” (priority 2010, published 2012).
# Columns and labels:
# human IgG1 = human IgG1 (Homo sapiens, UniProt P01857); experiment: action of human and bacterial proteases on human IgG1 (Table 1); format: biochemical; conditions: for Major Product: None = no detectable cleavage in 24 hours; for Cleaved Site: human IgG1 heavy chain, EU numbering
# Procedure: Table 1 is a summary of the findings concerning the action of human proteases and two bacterial proteases on human IgG1. The term “Coagulation proteinases” refers to serum coagulation cascade proteins including; FXIIa, FIXa, FXa, thrombin and activated protein C; plasmin was plasminogen co-incubated with plasminogen activators; tPA, streptokinase and staphylokinase; “plasminogen activators alone” are without plasminogen; and the MMPs were recombinant proteinases obtained either as the active form or the pro-enzyme as detailed in the Materials; and “None” denotes no detectable cleavage in 24 hours. Except where indicated all enzymes where human. The residue designations are for the EU numbering system for the IgG1 antibody heavy chain where the 25 residues of SEQ ID NO: 1 corresponds to residues 219 through 243 of the complete mature heavy chain.
# platelets [1] = experiment: circulating platelet counts in dogs; format: in vivo, dog; conditions: dose finding
# platelets [2] = experiment: circulating platelet counts in dogs; format: in vivo, dog; conditions: for platelet clearance: dose finding
# Procedure: First, the c7E3 antibody antigen binding and platelet depletion parameters were established in dogs.
# c7E3 IgG and c7E3 IgG single-cleaved by IdeS protease were also compared in vivo. Three groups of 5 animals received either saline control, intact c7E3 IgG (0.05 mg/kg) or c7E3 single-cleaved IgG (0.05 mg/kg). Platelet counts were monitored at baseline and at 2, 24, 48, 72 and 96 hours post-administration. Limiting the study to 5 days minimized the likelihood of anti-c7E3 immune responses that might confound the interpretation of the results. The results are presented in FIG. 3 as the mean platelet count±SD for each animal group at each time point. The extent of the error bars connotes the normal variability of platelet counts in different animals (for example, the predose counts for the 5 animals in the single-cleaved IgG treatment group were 175,000, 355,000, 305,000, 276,000 and 334,000 per μL, respectively).
# To be consistent with the prior experiments, the variants of c7E3 were all administered at the 0.05 mg/kg dose. The unique aspect of the experiment (groups 6 and 7) involves the infusion of the first targeting mAb followed by the cleavage site specific mAb after a 10 minute delay. The cleavage site specific IdeS cleavage site mAb, 2095-2, was administered at 0.5 mg/kg; 10-fold higher than the dose used for all of the c7E3 variants. The higher dose was chosen in order to maximize the complexation of cleavage site specific mAb with platelet-bound c7E3 variants. All mAbs were delivered by slow infusion over a 20 minute period. Platelet counts were monitored over a 96-hour period. The platelet counts were normalized to the pre-dose count within each animal for clarity of presentation and to minimize the normal variability in numerical platelet counts in these small 3-animal groups.
# [3] = FIG. 12 study, groups of 3 animals, c7E3 variants 0.05 mg/kg, 2095-2 0.5 mg/kg
# Chain of human IgG1 (P01857 1-330 isoform P01857-1, other chains not shown): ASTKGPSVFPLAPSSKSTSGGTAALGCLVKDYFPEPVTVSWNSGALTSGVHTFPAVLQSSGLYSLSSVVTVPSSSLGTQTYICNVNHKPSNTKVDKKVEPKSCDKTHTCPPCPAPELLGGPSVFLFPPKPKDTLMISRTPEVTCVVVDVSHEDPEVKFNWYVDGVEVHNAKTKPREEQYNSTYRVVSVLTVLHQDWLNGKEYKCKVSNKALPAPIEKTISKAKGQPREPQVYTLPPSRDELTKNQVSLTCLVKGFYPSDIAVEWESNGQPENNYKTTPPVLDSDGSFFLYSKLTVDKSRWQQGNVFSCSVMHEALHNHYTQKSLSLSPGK
molecule,measurement,setting,value
"Macrophage metalloelastase (MMP-12): recombinant human MMP (protein, UniProt P39900 106-470, looked up) Macrophage metalloelastase: GPVWRKHYITYRINNYTPDMNREDVDYAIRKAFQVWSNVTPLKFSKINTGMADILVVFARGAHGDFHAFDGKGGILAHAFGPGSGIGGDAHFDEDEFWTTHSGGTNLFLTAVHEIGHSLGLGHSSDPKAVMFPTYKYVDINTFRLSADDIRGIQSLYGDPKENQRLPNPDNSEPALCDPNLSFDAVTTVGNKIFFFKDRFFWLKVSERPKTSVNLISSLWPTLPSGIEAAYEIEARNQVFLFKDDKYWLISNLRPEPNYPKSIHSFGFPNFVKKIDAAVFNPRFYRTYFFVDNQYWRYDERRQMMDPGYPKLITKNFQGIGPKIDAVFYSKNKYYYFFQGSNQFEYDFLLQRITKTLKSNSWFGC",Major Product,human IgG1,F(ab′)2 +
same,Cleaved Site,human IgG1,Pro^232-
"Plasmin: plasminogen co-incubated with plasminogen activators (protein, UniProt P00747 20-580; P00747 581-810, looked up, plasmin) Plasmin heavy chain A: EPLDDYVNTQGASLFSVTKKQLGAGSIEECAAKCEEDEEFTCRAFQYHSKEQQCVIMAENRKSSIIIRMRDVVLFEKKVYLSECKTGNGKNYRGTMSKTKNGITCQKWSSTSPHRPRFSPATHPSEGLEENYCRNPDNDPQGPWCYTTDPEKRYDYCDILECEEECMHCSGENYDGKISKTMSGLECQAWDSQSPHAHGYIPSKFPNKNLKKNYCRNPDRELRPWCFTTDPNKRWELCDIPRCTTPPPSSGPTYQCLKGTGENYRGNVAVTVSGHTCQHWSAQTPHTHNRTPENFPCKNLDENYCRNPDGKRAPWCHTTNSQVRWEYCKIPSCDSSPVSTEQLAPTAPPELTPVVQDCYHGDGQSYRGTSSTTTTGKKCQSWSSMTPHRHQKTPENYPNAGLTMNYCRNPDADKGPWCFTTDPSVRWEYCNLKKCSGTEASVVAPPPVVLLPDVETPSEEDCMFGNGKGYRGKRATTVTGTPCQDWAAQEPHRHSIFTPETNPRAGLEKNYCRNPDGDVGGPWCYTTNPRKLYDYCDVPQCAAPSFDCGKPQVEPKKCPGR Plasmin light chain B: VVGGCVAHPHSWPWQVSLRTRFGMHFCGGTLISPEWVLTAAHCLEKSPRPSSYKVILGAHQEVNLEPHVQEIEVSRLFLEPTRKDIALLKLSSPAVITDKVIPACLPSPNYVVADRTECFITGWGETQGTFGAGLLKEAQLPVIENKVCNRYEFLNGRVQSTELCAGHLAGGTDSCQGDSGGPLVCFEKDKYILQGVTSWGLGCARPNKPGVYVRVSRFVTWIEGVMRNN",Major Product,human IgG1,Fab + Fc
same,Cleaved Site,human IgG1,Lys^223-
"Chymase: human protease (protein, UniProt P23946 22-247, looked up) Chymase: IIGGTECKPHSRPYMAYLEIVTSNGPSKFCGGFLIRRNFVLTAAHCAGRSITVTLGAHNITEEEDTWQKLEVIKQFRHPKYNTSTLHHDIMLLKLKEKASLTLAVGTLPFPSQFNFVPPGRMCRVAGWGRTGVLKPGSDTLQEVKLRLMDPQACSHFRDFDHNLQLCVGNPRKTKSAFKGDSGGPLLCAGVAQGIVSYGRSDAKPPAVFTRISHYRPWINQILQAN",Major Product,human IgG1,None
"Cathepsin S: human cysteine endopeptidase (protein, UniProt P25774 115-331, looked up) Cathepsin S: LPDSVDWREKGCVTEVKYQGSCGACWAFSAVGALEAQLKLKTGKLVSLSAQNLVDCSTEKYGNKGCNGGFMTTAFQYIIDNKGIDSDASYPYKAMDQKCQYDSKYRAATCSKYTELPYGREDVLKEAVANKGPVSVGVDARHPSFFLYRSGVYYEPSCTQNVNHGVLVVGYGDLNGKEYWLVKNSWGHNFGEEGYIRMARNKGNHCGIASFPSYPEI",Major Product,human IgG1,None
"c7E3 IgG: anti-platelet integrin (αIIbβIIIa) murine-human IgG1 chimeric antibody (antibody, chains of the INN, looked up, V domains shown, IgG1, anti-platelet integrin (αIIbβIIIa) murine-human IgG1 chimeric antibody) VH: EVQLQQSGTVLARPGASVKMSCEASGYTFTNYWMHWVKQRPGQGLEWIGAIYPGNSDTSYIQKFKGKAKLTAVTSTTSVYMELSSLTNEDSAVYYCTLYDGYYVFAYWGQGTLVTVSA VL: EIVLTQSPVTLSVTPGDSVSLSCRASRDISNNLHWFQQTSHESPRLLIKYASQSMSGIPSRFSGSGSGTDFTLSINSVETEDFGMYFCQQTNSWPYTFGGGTKLEIK",platelet clearance,"platelets [1]; 0.01 mg/kg, 2 and 24 hours",ineffective
same,platelet clearance,"platelets [1]; 0.2 mg/kg, at 2 hours, maintained at 24 hours",profound platelet clearance
same,platelet count recovery,"platelets [2]; 0.05 mg/kg, by 96 hours",approximately 50 % of the pre-dose level
same,time of platelet nadir,"platelets [2]; 0.05 mg/kg, groups of 5 animals",24 h
same,effect on platelet numbers,"platelets [2]; 0.05 mg/kg, groups of 5 animals, monitored to 96 hours",substantial decrease
same,start of recovery of platelet numbers,"platelets [2]; FIG. 12 study, 0.05 mg/kg",approximately 72 hours
same,time of platelet nadir,"platelets [2]; FIG. 12 study, 0.05 mg/kg",24 to 48 h
same,effect on platelet numbers,platelets [2]; [3],substantial platelet clearance
same,platelet clearance in pilot study,"platelets [2]; after 24 hours, recovery over 5 days",profound platelet clearance
same,αIIβ3 receptor blockade,platelets [2]; calculated for the 0.05 mg/kg dose,about 5%
same,platelet clearance,"platelets [2]; 0.05 mg/kg, 2 hours",little effect
same,platelet clearance,"platelets [2]; 0.05 mg/kg, 24 hours",> 90%
same,time to platelet clearance,platelets [2]; doses >0.05 mg/kg,≤ 24 h
"c7E3 F(ab′)2: F(ab′)2 of c7E3 prepared using the bacterial enzyme IdeS (antibody, chains of the INN, looked up, V domains shown, F(ab')2 IdeS-generated, F(ab′)2 of c7E3 prepared using the bacterial enzyme IdeS) VH: EVQLQQSGTVLARPGASVKMSCEASGYTFTNYWMHWVKQRPGQGLEWIGAIYPGNSDTSYIQKFKGKAKLTAVTSTTSVYMELSSLTNEDSAVYYCTLYDGYYVFAYWGQGTLVTVSA VL: EIVLTQSPVTLSVTPGDSVSLSCRASRDISNNLHWFQQTSHESPRLLIKYASQSMSGIPSRFSGSGSGTDFTLSINSVETEDFGMYFCQQTNSWPYTFGGGTKLEIK",effect on platelet numbers,platelets [2]; [3],without effect
"Proteinase 3: human protease (protein, UniProt P24158 28-248, looked up) Myeloblastin: IVGGHEAQPHSRPYMASLQMRGNPGSHFCGGTLIHPSFVLTAAHCLRDIPQRLVNVVLGAHNVRTQEPTQQHFSVAQVFLNNYDAENKLNDVLLIQLSSPANLSASVATVQLPQQDQPVPHGTQCLAMGWGRVGAHDPPAQVLQELNVTVVTFFCRPHNICTFVPRRKAGICFGDSGGPLICDGIIQGIDSFVIWGCATRLFPDFFTRVALYVDWIRSTLR",Major Product,human IgG1,None
